Measurements published in patent US20190352375A1.

molecular target: Hemagglutinin of AIV A/duck/It/775/04(H5N3) (Influenza A virus A/duck/Italy/775/2004(H5N3)); test: cell-based or functional assay

In order of rising HI titer:
1. mAb 8: Monoclonal Antibody to Influenza A (Hemagglutinin H5) H5N1 - Purified, Acris Antibodies AM00941PU-N  1 µg/mL
2. mAb 7: Monoclonal Antibody to Influenza A (Hemagglutinin H5) H5N1 - Purified, Acris Antibodies AM00945PU-N  2 µg/mL
3. mAb 9 (Pierce/Thermo Sci., Cat. No. MA1-81928) (antibody)  7.8 µg/mL
